Assay results: the supplement of paper PMC5998384

Tests used:
HeLa Kyoto [1] = assay: solubility in G1/S (NP-40 vs SDS abundance) (log2 ratio); higher = more soluble; conditions: cell cycle stage: G1/S
HeLa Kyoto [2] = assay: solubility change mitosis vs G1/S (difference of NP-40 vs SDS log2 ratios) (log2 ratio difference); higher = more soluble in mitosis
HeLa Kyoto [3] = assay: melting temperature (median over replicates), in situ; higher = more thermally stable
HeLa Kyoto [4] = assay: thermal stability score vs G1/S (z-score of summed log2 fold changes over temperatures); higher = more thermally stable than in G1/S
[5] = cell cycle stage: early G1 (4.5 h after nocodazole release)
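For melting temperature (median over replicates), in situ in this document: HeLa Kyoto cells synchronized by double thymidine or nocodazole block, proteins quantified by TMT10plex mass spectrometry, three independent biological replicates.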
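For solubility change mitosis vs G1/S (difference of NP-40 vs SDS log2 ratios) in this document: synchronized HeLa Kyoto cells (double thymidine block for G1/S, nocodazole release for mitosis), protein amounts in NP-40 versus SDS lysates quantified by mass spectrometry, three biological replicates.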
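For solubility in G1/S (NP-40 vs SDS abundance) in this document: HeLa Kyoto cells arrested at G1/S by double thymidine block, proteins quantified by TMT10plex mass spectrometry in mild NP-40 versus SDS extracts, three biological replicates.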
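For thermal stability score vs G1/S (z-score of summed log2 fold changes over temperatures) in this document: synchronized HeLa Kyoto cells, proteins quantified by TMT10plex mass spectrometry, three biological replicates, mitosis taken 0.5 h after nocodazole release, G1/S directly after double thymidine block.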

| Sequence | solubility in G1/S (log2) (HeLa Kyoto [1]) | solubility change mitosis (log2) (HeLa Kyoto [2]) | melting temperature (HeLa Kyoto [3]; cell cycle stage: G1/S) [°C] | thermal stability score (HeLa Kyoto [4]; [5]) | thermal stability score (HeLa Kyoto [4]; cell cycle stage: mitosis) | melting temperature (HeLa Kyoto [3]; cell cycle stage: mitosis) [°C] |
| --- | --- | --- | --- | --- | --- | --- |
| MKMTVDFEECLKDSPRFRAALEEVEGDVAELELKLDKLVKLCIAMIDTGKAFCVANKQFMNGIRDLAQYSSNDAVVETSLTKFSDSLQEMINFHTILFDQTQRSIKAQLQNFVKEDLRKFKDAKKQFEKVSEEKENALVKNAQVQRNKQHEVEEATNILTATRKCFRHIALDYVLQINVLQSKRRSEILKSMLSFMYAHLAFFHQGYDLFSELGPYMKDLGAQLDRLVVDAAKEKREMEQKHSTIQQKDFSSDDSKLEYNVDAANGIVMEGYLFKRASNAFKTWNRRWFSIQNNQLVYQKKFKDNPTVVVEDLRLCTVKHCEDIERRFCFEVVSPTKSCMLQADSEKLRQAWIKAVQTSIATAYREKGDESEKLDKKSSPSTGSLDSGNESKEKLLKGESALQRVQCIPGNASCCDCGLADPRWASINLGITLCIECSGIHRSLGVHFSKVRSLTLDTWEPELLKLMCELGNDVINRVYEANVEKMGIKKPQPGQRQEKEAYIRAKYVERKFVDKYSISLSPPEQQKKFVSKSSEEKRLSISKFGPGDQVRASAQSSVRSNDSGIQQSSDDGRESLPSTVSANSLYEPEGERQDSSMFLDSKHLNPGLQLYRASYEKNLPKMAEALAHGADVNWANSEENKATPLIQAVLGGSLVTCEFLLQNGANVNQRDVQGRGPLHHATVLGHTGQVCLFLKRGANQHATDEEGKDPLSIAVEAANADIVTLLRLARMNEEMRESEGLYGQPGDETYQDIFRDFSQMASNNPEKLNRFQQDSQKF [ACAP2] | -0.0242 | -0.215 | 49.8 | 0.348 | 0.369 | – |
| MSWLFGINKGPKGEGAGPPPPLPPAQPGAEGGGDRGLGDRPAPKDKWSNFDPTGLERAAKAARELEHSRYAKDALNLAQMQEQTLQLEQQSKLKEYEAAVEQLKSEQIRAQAEERRKTLSEETRQHQARAQYQDKLARQRYEDQLKQQQLLNEENLRKQEESVQKQEAMRRATVEREMELRHKNEMLRVEAEARARAKAERENADIIREQIRLKAAEHRQTVLESIRTAGTLFGEGFRAFVTDWDKVTATVAGLTLLAVGVYSAKNATLVAGRFIEARLGKPSLVRETSRITVLEALRHPIQVSRRLLSRPQDALEGVVLSPSLEARVRDIAIATRNTKKNRSLYRNILMYGPPGTGKTLFAKKLALHSGMDYAIMTGGDVAPMGREGVTAMHKLFDWANTSRRGLLLFVDEADAFLRKRATEKISEDLRATLNAFLYRTGQHSNKFMLVLASNQPEQFDWAINDRINEMVHFDLPGQEERERLVRMYFDKYVLKPATEGKQRLKLAQFDYGRKCSEVARLTEGMSGREIAQLAVSWQATAYASEDGVLTEAMMDTRVQDAVQQHQQKMCWLKAEGPGRGDEPSPS [ATAD3A] | -0.0262 | -0.0269 | 50.5 | -0.608 | 0.271 | 51 |
| MNPESSIFIEDYLKYFQDQVSRENLLQLLTDDEAWNGFVAAAELPRDEADELRKALNKLASHMVMKDKNRHDKDQQHRQWFLKEFPRLKRELEDHIRKLRALAEEVEQVHRGTTIANVVSNSVGTTSGILTLLGLGLAPFTEGISFVLLDTGMGLGAAAAVAGITCSVVELVNKLRARAQARNLDQSGTNVAKVMKEFVGGNTPNVLTLVDNWYQVTQGIGRNIRAIRRARANPQLGAYAPPPHVIGRISAEGGEQVERVVEGPAQAMSRGTMIVGAATGGILLLLDVVSLAYESKHLLEGAKSESAEELKKRAQELEGKLNFLTKIHEMLQPGQDQ [APOL2] | 0.309 | 0.0238 | 50 | 4.12 | 3.26 | 50.8 |
| MELQPPEASIAVVSIPRQLPGSHSEAGVQGLSAGDDSELGSHCVAQTGLELLASGDPLPSASQNAEMIETGSDCVTQAGLQLLASSDPPALASKNAEVTGTMSQDTEVDMKEVELNELEPEKQPMNAASGAAMSLAGAEKNGLVKIKVAEDEAEAAAAAKFTGLSKEELLKVAGSPGWVRTRWALLLLFWLGWLGMLAGAVVIIVRAPRCRELPAQKWWHTGALYRIGDLQAFQGHGAGNLAGLKGRLDYLSSLKVKGLVLGPIHKNQKDDVAQTDLLQIDPNFGSKEDFDSLLQSAKKKSIRVILDLTPNYRGENSWFSTQVDTVATKVKDALEFWLQAGVDGFQVRDIENLKDASSFLAEWQNITKGFSEDRLLIAGTNSSDLQQILSLLESNKDLLLTSSYLSDSGSTGEHTKSLVTQYLNATGNRWCSWSLSQARLLTSFLPAQLLRLYQLMLFTLPGTPVFSYGDEIGLDAAALPGQPMEAPVMLWDESSFPDIPGAVSANMTVKGQSEDPGSLLSLFRRLSDQRSKERSLLHGDFHAFSAGPGLFSYIRHWDQNERFLVVLNFGDVGLSAGLQASDLPASASLPAKADLLLSTQPGREEGSPLELERLKLEPHEGLLLRFPYAA [SLC3A2] | 0.345 | -0.0187 | 59.8 | -2.05 | -1.32 | 60.5 |
| MAQRKNAKSSGNSSSSGSGSGSTSAGSSSPGARRETKHGGHKNGRKGGLSGTSFFTWFMVIALLGVWTSVAVVWFDLVDYEEVLGKLGIYDADGDGDFDVDDAKVLLGLKERSTSEPAVPPEEAEPHTEPEEQVPVEAEPQNIEDEAKEQIQSLLHEMVHAEHVEGEDLQQEDGPTGEPQQEDDEFLMATDVDDRFETLEPEVSHEETEHSYHVEETVSQDCNQDMEEMMSEQENPDSSEPVVEDERLHHDTDDVTYQVYEEQAVYEPLENEGIEITEVTAPPEDNPVEDSQVIVEEVSIFPVEEQQEVPPETNRKTDDPEQKAKVKKKKPKLLNKFDKTIKAELDAAEKLRKRGKIEEAVNAFKELVRKYPQSPRARYGKAQCEDDLAEKRRSNEVLRGAIETYQEVASLPDVPADLLKLSLKRRSDRQQFLGHMRGSLLTLQRLVQLFPNDTSLKNDLGVGYLLIGDNDNAKKVYEEVLSVTPNDGFAKVHYGFILKAQNKIAESIPYLKEGIESGDPGTDDGRFYFHLGDAMQRVGNKEAYKWYELGHKRGHFASVWQRSLYNVNGLKAQPWWTPKETGYTELVKSLERNWKLIRDEGLAVMDKAKGLFLPEDENLREKGDWSQFTLWQQGRRNENACKGAPKTCTLLEKFPETTGCRRGQIKYSIMHPGTHVWPHTGPTNCRLRMHLGLVIPKEGCKIRCANETKTWEEGKVLIFDDSFEHEVWQDASSFRLIFIVDVWHPELTPQQRRSLPAI [ASPH] | -0.00862 | 0.0282 | 54.2 | 1.63 | 2.03 | 53.5 |
